Data as given in the RNAGym collection of RNA variant scans (doi:10.7554/elife.80360).

B1: Twister Ribozyme (parent)
chain: AACACUGCCAAUGCCGGUCCCAAGCCCGGAUAAAAGUGGAGGGGGCGG

Variants of: B1
Assay: self-cleavage, relative activity (ratio to wild type); higher = more cleavage; co-transcriptional

Variant | self-cleavage
C8G A22C | 0.437
C8G A33G | 0.232
C8G A33U | 0.279
G7U G45C | 0.118
G7C A33C | 0.0837
G7C A33G | 0.064
G7C A33U | 0.0354
C9A C14G | 0.0661
C9A C21A | 0.0865
C9A C21G | 0.164
C8G G43C | 0.139
C8G G43U | 0.148
C8G G43A | 0.137
G7U U18A | 0.0251
G7U U18C | 0.0819
G7U U18G | 0.0649
G7C A35G | 0.0589
G7U G36U | 0.0615
G7U G36A | 0.0763
G7U G36C | 0.0408
G7A G45A | 0.397
G7A G45C | 0.139
G7A G47A | 0.271
C9A A33C | 0.603

Variant | self-cleavage
G7U C9A | 0.0711
G7U C9G | 0.0496
C8G A11U | 0.691
C8G A11C | 0.55
C8A G39U | 0.123
G7C C46U | 0.0589
G7C C46A | 0.0371
G7C C46G | 0.0721
C8A C14G | 0.0608
C8A C14A | 0.529
C8A C14U | 0.597
G7C G41A | 0.0519
C8U A40G | 0.172
C8U C25G | 0.1
C8U C25A | 0.0853
C8U C25U | 0.195
G7C A22G | 0.0331
G7C A22U | 0.0623
C8G G44U | 0.275
C8G G44A | 0.513
G7C A30G | 0.0729
C8A C46U | 0.46
C8U G24U | 0.177
C8U G13C | 0.121

Variant | self-cleavage
C8U G13A | 0.342
G7C G42U | 0.0563
G7C G36A | 0.0583
G7C G36U | 0.0725
C8U A34G | 0.582
C8U A34U | 0.308
C8U A34C | 0.134
G7A G42A | 0.176
G7A G42C | 0.258
G7C G44C | 0.0685
C8A C15A | 0.134
G7C G16U | 0.0598
G7C G16A | 0.0653
G7C C25U | 0.128
C8U A22G | 0.1
C8U A22U | 0.419
C8U C19U | 0.35
G7C C19U | 0.0513
G7C C19A | 0.0521
C8U U18C | 0.0906
C8U U18G | 0.0414
G7U G47A | 0.0641
C8U C20A | 0.0588
G7A G48C | 0.457

Variant | self-cleavage
G7A G48A | 0.26
G7A G48U | 0.381
C8U G39U | 0.136
C8U G39A | 0.161
C8G G48A | 0.227
G7A G29A | 0.325
C8A G45A | 0.203
C8A G45U | 0.176
C8A G45C | 0.141
G7U G13U | 0.0485
G7C A32U | 0.0629
C8U A35U | 0.756
C8U A35C | 0.547
C8A A10U | 0.239
G7C C9A | 0.0747
C8G A10G | 0.592
C8G A10C | 0.872
G7U A33C | 0.0647
G7U A33G | 0.0484
C8G C21U | 0.0624
C8G C21A | 0.041
C8G G38A | 0.325
G7U C25G | 0.401
G7U G28C | 0.0665

Variant | self-cleavage
G7U G28U | 0.0862
C8A A30U | 0.284
C8A A30C | 0.147
G7U G42C | 0.0955
G7U G42A | 0.0796
G7U C21A | 0.0755
C9A A34C | 0.18
G7U | 0.143
G7C | 0.0658
C8A U37A | 0.225
C8G G45U | 0.183
C8G G45C | 0.118
C8G G45A | 0.207
G7C G43A | 0.0617
G7C G43U | 0.0777
G7C G17A | 0.0642
G7C G17C | 0.0528
C9A C19U | 0.197
G7U A23C | 0.0594
G7U A23G | 0.0791
G7C C15U | 0.0844
C8U A23C | 0.0653
G7C G13U | 0.0637
C8A G28A | 0.281

Variant | self-cleavage
C8U A32C | 0.733
C8A C20U | 0.0847
C8A C20A | 0.0847
C8U G42U | 0.133
C8U G42A | 0.127
G7U A40G | 0.0793
G7U A40U | 0.072
G7U A40C | 0.0967
C8U C21U | 0.0732
C8U C21G | 0.0658
C8A C26G | 0.0829
C8A C26A | 0.106
G7A G43U | 0.152
G7C U37A | 0.0472
G7C U37G | 0.062
C8A A34U | 0.675
C8A A34G | 0.701
C8U U37G | 0.382
G7U G24A | 0.0738
G7U G29U | 0.0673
C8U G48U | 0.678
C8G C26G | 0.12
C9A A40C | 0.108
C9A A40U | 0.119

Variant | self-cleavage
C8G G28C | 0.083
C8G G28U | 0.0873
C8G G16A | 0.061
C8G G16C | 0.0753
C8A U31A | 0.433
C8A U31C | 0.652
C8A G43C | 0.153
C8U C27G | 0.0565
C8U C27A | 0.0891
C8U C27U | 0.288
G7C C20A | 0.0744
C9A C20U | 0.15
C9A C20A | 0.0653
C8A A23C | 0.0825
C8A A23G | 0.0496
C8A A23U | 0.0553
G7C G48U | 0.0851
G7C G48A | 0.0718
C8G G42U | 0.147
C8G C19U | 0.113
C8G A23C | 0.0689
C8A G17U | 0.0971
C8A G17A | 0.12
